In patent US5763593:

Target: TATA-binding protein (Saccharomyces cerevisiae (strain ATCC 204508 / S288c) (Baker's yeast)) (UniProt P13393)

Question: For “purified yeast NC2 (DRAP1/Dr1) with epitope-tagged (FLAG) NC2α/DRAP1 subunit”, which amount required for 50% inhibition of in vitro transcription by RNA polymerase II holoenzyme is on record?
Answer: Its amount required for 50% inhibition of in vitro transcription by RNA polymerase II holoenzyme is 0.5 pmol.
